Assay results reported in PMC2265524, “ruvA Mutants That Resolve Holliday Junctions but Do Not Reverse Replication Forks” (PLoS Genetics, 2008).

T1: wild-type RuvB protein (E. coli) (UniProt P0A812)
T1 sequence: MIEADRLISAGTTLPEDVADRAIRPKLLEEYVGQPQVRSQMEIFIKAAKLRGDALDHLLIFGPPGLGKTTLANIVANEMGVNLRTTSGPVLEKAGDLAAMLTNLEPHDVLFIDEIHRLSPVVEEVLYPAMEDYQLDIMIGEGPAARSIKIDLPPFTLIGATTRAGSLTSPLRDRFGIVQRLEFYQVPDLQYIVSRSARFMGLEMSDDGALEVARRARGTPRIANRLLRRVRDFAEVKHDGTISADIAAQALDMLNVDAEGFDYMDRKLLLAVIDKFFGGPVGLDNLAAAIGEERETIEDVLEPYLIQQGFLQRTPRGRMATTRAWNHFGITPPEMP

T2: RuvA wild type (Escherichia coli, UniProt P0A809 1-203)
T2 sequence: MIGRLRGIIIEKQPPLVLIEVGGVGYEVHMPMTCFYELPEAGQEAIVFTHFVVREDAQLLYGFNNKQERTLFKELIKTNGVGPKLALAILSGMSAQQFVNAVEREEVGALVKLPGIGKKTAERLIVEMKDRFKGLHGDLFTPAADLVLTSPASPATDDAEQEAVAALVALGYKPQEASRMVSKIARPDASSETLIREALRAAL


Columns and labels:
[1] = molecular target: T1, wild-type RuvB protein (E. coli)
[2] = molecular target: the molecule itself; test: SDS-PAGE without boiling the protein samples; purified RuvA mutant proteins run on SDS-PAGE without boiling; tetramer band under denaturing gel conditions; data not shown
[3] = molecular target: T2, RuvA wild type; test: EMSA; EDTA; complexes I and II; EMSA with ~4-5 ng labelled DNA; 5 mM EDTA (gel 0.5x TBE) or 3 mM MgCl2 without EDTA (gel 0.5x TB + 200 uM MgCl2); buffer as in cited ref 18; salt, pH and temperature not stated; settings: protein: recombinant; chain copies: 4; label: 5' IRD700 on S24 (IT.01); four-way junction of 4 strands

Row | Binder | stoichiometry N [2] | further results
1 | wild-type RuvA (natural protein) MIGRLRGIIIEKQPPLVLIEVGGVGYEVHMPMTCFYELPEAGQEAIVFTHFVVREDAQLLYGFNNKQERTLFKELIKTNGVGPKLALAILSGMSAQQFVNAVEREEVGALVKLPGIGKKTAERLIVEMKDRFKGLHGDLFTPAADLVLTSPASPATDDAEQEAVAALVALGYKPQEASRMVSKIARPDASSETLIREALRAAL |  | RuvA concentration required for RuvB (250 nM) to unwind 50% of a labelled 52-mer annealed to phiX174 ssDNA (DNA helicase assay) [1]: 100 nM
2 | RuvAz87 (natural protein, E. coli, UniProt P0A809 1-203, looked up, RuvA of E. coli with the two mutations N79D N100D; Purification steps and expression construct of the mutant proteins are in the supplementary material (Text S1); also called ruvAz87 (N79D N100D); ruvA87; source: over-expressed in E. coli and purified) MIGRLRGIIIEKQPPLVLIEVGGVGYEVHMPMTCFYELPEAGQEAIVFTHFVVREDAQLLYGFNNKQERTLFKELIKTDGVGPKLALAILSGMSAQQFVDAVEREEVGALVKLPGIGKKTAERLIVEMKDRFKGLHGDLFTPAADLVLTSPASPATDDAEQEAVAALVALGYKPQEASRMVSKIARPDASSETLIREALRAAL | 4 | 
3 | RuvAz3 (natural protein, E. coli, UniProt P0A809 1-203, looked up, RuvA of E. coli with the three mutations H29R K129E F140S; Purification steps and expression construct of the mutant proteins are in the supplementary material (Text S1); also called ruvAz3 (H29R K129E F140S); pGB-ruvAz3; source: over-expressed in E. coli and purified) MIGRLRGIIIEKQPPLVLIEVGGVGYEVRMPMTCFYELPEAGQEAIVFTHFVVREDAQLLYGFNNKQERTLFKELIKTNGVGPKLALAILSGMSAQQFVNAVEREEVGALVKLPGIGKKTAERLIVEMEDRFKGLHGDLSTPAADLVLTSPASPATDDAEQEAVAALVALGYKPQEASRMVSKIARPDASSETLIREALRAAL | 4 | 
4 | X12 (synthetic Holliday junction) (structured_DNA) DNA 1: GACGCTGCCGAATTCTACCAGTGCCTTGCTAGGACATCTTTGCCCACCTGCAGGTTCACCC DNA 2: TGGGTGAACCTGCAGGTGGGCAAAGATGTCCTAGCAATGTAATCGTCAAGCTTTATGCCGTT DNA 3: CAACGGCATAAAGCTTGACGATTACATTGCTAGGACATGCTGTCTAGAGGATCCGACTATCGA DNA 4: ATCGATAGTCGGATCCTCTAGACAGCATGTCCTAGCAAGGCACTGGTAGAATTCGGCAGCGT |  | binding result [3]: binds
